Measured values from patent US20060078622A1, “Pharmaceutical formulations containing microparticles or nanoparticles of a delivery agent” (priority 2004, published 2006).
Like-named read-outs stand apart in the source and are kept apart here.

From the text: This value was assumed to be constant in the estimates of absolute bioavailability.
The portal bioavailability provides an estimate of drug absorption from oral delivery. […] This value is used to estimate bioavailability relative to subcutaneous.

## Insulin: Recombinant human zinc insulin
SC (subcutaneous) dosing, average
  AUC0->T/Dose: 0.0052 kg·min/mL
SC, average of studies 1-8
  Avg AUC0->T/Dose: 0.005159 kg·min/mL
SC, study 1, […]
  AUC0->T/Dose: 0.005601 kg·min/mL
SC, study 2, […]
  AUC0->T/Dose: 0.006514 kg·min/mL
SC, study 3, 0.05 mg/kg
  AUC0->T/Dose: 0.005562 kg·min/mL
SC, study 3, 0.05 mg/kg, time 0
  Insulin: 1.51 uU/ml
SC, study 3, 0.05 mg/kg, time 15
  Insulin: 98.85 uU/ml
SC, study 3, 0.05 mg/kg, time 30
  Insulin: 73.59 uU/ml
SC, study 3, 0.05 mg/kg, time 45
  Insulin: 61.37 uU/ml
SC, study 3, 0.05 mg/kg, time 60
  Insulin: 58.20 uU/ml
SC, study 3, 0.05 mg/kg, time 120
  Insulin: 21.34 uU/ml
SC, study 3, 0.05 mg/kg, time 180
  Insulin: 8.30 uU/ml
SC, study 4, 0.05 mg/kg
  AUC0->T/Dose: 0.004929 kg·min/mL
SC, study 4, 0.05 mg/kg, time 0
  Insulin: 0.37 uU/ml
SC, study 4, 0.05 mg/kg, time 15
  Insulin: 103.42 uU/ml
SC, study 4, 0.05 mg/kg, time 30
  Insulin: 81.64 uU/ml
SC, study 4, 0.05 mg/kg, time 45
  Insulin: 68.91 uU/ml
SC, study 4, 0.05 mg/kg, time 60
  Insulin: 58.58 uU/ml
SC, study 4, 0.05 mg/kg, time 90
  Insulin: 32.01 uU/ml
SC, study 4, 0.05 mg/kg, time 120
  Insulin: 21.15 uU/ml
SC, study 5, 0.05 mg/kg
  AUC0->T/Dose: 0.001013 kg·min/mL
SC, study 5, 0.05 mg/kg, time 0
  Insulin: 0 uU/ml
SC, study 5, 0.05 mg/kg, time 15
  Insulin: 34.90 uU/ml
SC, study 5, 0.05 mg/kg, time 30
  Insulin: 9.71 uU/ml
SC, study 5, 0.05 mg/kg, time 45
  Insulin: 16.57 uU/ml
SC, study 5, 0.05 mg/kg, time 60
  Insulin: 10.46 uU/ml
SC, study 5, 0.05 mg/kg, time 90
  Insulin: 2.94 uU/ml
SC, study 5, 0.05 mg/kg, time 120
  Insulin: 5.05 uU/ml
SC, study 6, 0.05 mg/kg
  AUC0->T/Dose: 0.007644 kg·min/mL
SC, study 6, 0.05 mg/kg, time 15
  Insulin: 191.67 uU/ml
SC, study 6, 0.05 mg/kg, time 30
  Insulin: 119.71 uU/ml
SC, study 6, 0.05 mg/kg, time 45
  Insulin: 121.33 uU/ml
SC, study 6, 0.05 mg/kg, time 60
  Insulin: 74.65 uU/ml
SC, study 6, 0.05 mg/kg, time 90
  Insulin: 42.88 uU/ml
SC, study 6, 0.05 mg/kg, time 120
  Insulin: 25.65 uU/ml
SC, study 7, 0.05 mg/kg
  AUC0->T/Dose: 0.005932 kg·min/mL
  Tmax: 30 min
SC, study 7, 0.05 mg/kg, time 0
  Insulin: 5.85 uU/ml
SC, study 7, 0.05 mg/kg, time 15
  Insulin: 90.29 uU/ml
SC, study 7, 0.05 mg/kg, time 30
  Insulin: 125.96 uU/ml
SC, study 7, 0.05 mg/kg, time 45
  Insulin: 67.83 uU/ml
SC, study 7, 0.05 mg/kg, time 60
  Insulin: 78.19 uU/ml
SC, study 7, 0.05 mg/kg, time 90
  Insulin: 45.77 uU/ml
SC, study 7, 0.05 mg/kg, time 120
  Insulin: 18.24 uU/ml
SC, study 8, 0.05 mg/kg
  AUC0->T/Dose: 0.004079 kg·min/mL
SC, study 8, 0.05 mg/kg, time 15
  Insulin: 131.71 uU/ml
SC, study 8, 0.05 mg/kg, time 30
  Insulin: 70.90 uU/ml
SC, study 8, 0.05 mg/kg, time 45
  Insulin: 66.28 uU/ml
SC, study 8, 0.05 mg/kg, time 60
  Insulin: 0.59 uU/ml
SC, study 8, 0.05 mg/kg, time 90
  Insulin: 33.96 uU/ml
SC, study 8, 0.05 mg/kg, time 120
  Insulin: 14.64 uU/ml
Individual animals n 1-5
  FPE (fH): 0.18
Intraportal administration, Average
  AUC-IP: 9.65
Subcutaneous dosing
  average insulin AUC0→t/Dose: 0.00516 kg·min/mL
Systemic administration, Average
  AUC-JV: 15.53
